The experiment deals with flt3 on murine WWF7 cells. In words: cell-based or functional assay.

As to “flt3-L mutant F81S (from UniProt P49771 24-179) (ligand)”, the Sp.Ac. MUT / Sp.Ac. WT (WWF7 cell proliferation units/ml per flt3-L ng/ml by ELISA, yeast supernatant) (ratio to wild type) is 0.

Take “flt3-L mutant H8R (from UniProt P49771 24-179) (ligand)”: the Sp.Ac. MUT / Sp.Ac. WT (WWF7 cell proliferation units/ml per flt3-L ng/ml by ELISA, yeast supernatant) (ratio to wild type) is 0.

For the substance “flt3-L mutant H8Y (from UniProt P49771 24-179) (ligand)”, the Sp.Ac. MUT / Sp.Ac. WT (WWF7 cell proliferation units/ml per flt3-L ng/ml by ELISA, yeast supernatant) (ratio to wild type) is 1.71.

Consider “flt3-L mutant I11Y (from UniProt P49771 24-179) (ligand)”, for which the Sp.Ac. MUT / Sp.Ac. WT (WWF7 cell proliferation units/ml per flt3-L ng/ml by ELISA, yeast supernatant) (ratio to wild type) was found to be 0.

With “flt3-L mutant K84E (from UniProt P49771 24-179) (ligand)”, the Sp.Ac. MUT / Sp.Ac. WT (WWF7 cell proliferation units/ml per flt3-L ng/ml by ELISA, yeast supernatant) (ratio to wild type) amounted to 2.88.

On to “flt3-L mutant K84T (from UniProt P49771 24-235) (ligand)”, for which the Sp.Ac. MUT / Sp.Ac. WT (WWF7 cell proliferation units/ml per flt3-L ng/ml by ELISA, yeast supernatant) (ratio to wild type) is 1.63.

As for “flt3-L mutant K116E (from UniProt P49771 24-179) (ligand)”, the Sp.Ac. MUT / Sp.Ac. WT (WWF7 cell proliferation units/ml per flt3-L ng/ml by ELISA, yeast supernatant) (ratio to wild type) turned out to be 0.02.

In the case of “flt3-L mutant L26F (from UniProt P49771 24-235) (ligand)”, the Sp.Ac. MUT / Sp.Ac. WT (WWF7 cell proliferation units/ml per flt3-L ng/ml by ELISA, yeast supernatant) (ratio to wild type) was found to be 0.69.

Take “flt3-L mutant L27P (from UniProt P49771 24-179) (ligand)”: the Sp.Ac. MUT / Sp.Ac. WT (WWF7 cell proliferation units/ml per flt3-L ng/ml by ELISA, yeast supernatant) (ratio to wild type) was 0.07.

As to “flt3-L mutant Q122R (from UniProt P49771 24-179) (ligand)”, the Sp.Ac. MUT / Sp.Ac. WT (WWF7 cell proliferation units/ml per flt3-L ng/ml by ELISA, yeast supernatant) (ratio to wild type) was 2.16.

On to “flt3-L mutant V34L (from UniProt P49771 24-235) (ligand)”, for which the Sp.Ac. MUT / Sp.Ac. WT (WWF7 cell proliferation units/ml per flt3-L ng/ml by ELISA, yeast supernatant) (ratio to wild type) came out at 0.58.

Consider “flt3-L mutant W118R (from UniProt P49771 24-179) (ligand)”, for which the Sp.Ac. MUT / Sp.Ac. WT (WWF7 cell proliferation units/ml per flt3-L ng/ml by ELISA, yeast supernatant) (ratio to wild type) stood at 2.19.

With “wild type flt3-L (yeast-derived recombinant human flt3 Ligand) (from UniProt P49771 24-179)”, the Sp.Ac. MUT / Sp.Ac. WT (WWF7 cell proliferation units/ml per flt3-L ng/ml by ELISA, yeast supernatant) (ratio to wild type) turned out to be 1 and the specific activity of WT protein (WWF7 cell proliferation, yeast supernatant), averaged over 11 independent assays turned out to be 0.95 units/ng.

These data come from patent publication US20020111475A1.
